We go through three substances from publication PMC4364448.

Usually pKd stands for the negative decadic logarithm of the Kd, by convention in mol/L. For orientation: stoichiometry N means a count of units in the complex or per binding partner.

The experiment deals with Arp2/3 complex (bovine) (UniProt A7MB62). Nature of the experiment: ITC. On the technique in general: ITC needs no label: the signal is the heat of the interaction.

pKd: −log10 of the molar value.

With “Human GMFγ (from UniProt O60234 1-142) (natural protein)”, the pKd was 6.70.
WCA_(N-WASP) (domain or fragment) showed a Kd site-1 of 20 nM, a Kd site-2 of 182 nM and a stoichiometry N of 2.
Substance WCA_(WAVE) (domain or fragment) came in with a fold lower affinity than N-WASP WCA, site-1 of 2 fold; a fold lower affinity than N-WASP WCA, site-2 of 6 fold; a stoichiometry N of 2.
